Among the data in publication PMC3711439, “Mechanisms of in vivo binding site selection of the hematopoietic master transcription factor PU.1” are Kd values, retold here.

B1: PU.1 motif oligo 18 (dsDNA)
DNA 1: ACGTCACTTCCTCAACACGT
DNA 2: ACGTGTTGAGGAAGTGACGT
B2: PU.1 motif oligo 12 (dsDNA)
DNA 1: ACGTCACTTCCTTTCTACGT
DNA 2: ACGTAGAAAGGAAGTGACGT
B3: PU.1 motif oligo 14 (dsDNA)
DNA 1: ACGTCACTTCCTCTGTACGT
DNA 2: ACGTACAGAGGAAGTGACGT
B4: PU.1 motif oligo 42 (dsDNA)
DNA 1: ACGTCACTTCCGCCTCACGT
DNA 2: ACGTGAGGCGGAAGTGACGT
B5: PU.1 motif oligo 1 (dsDNA)
DNA 1: ACGTCACTTCCTCTTTACGT
DNA 2: ACGTAAAGAGGAAGTGACGT
B6: PU.1 motif oligo 4 (dsDNA)
DNA 1: ACGTCACTTCCTCTATACGT
DNA 2: ACGTATAGAGGAAGTGACGT
B7: PU.1 motif oligo 23 (dsDNA)
DNA 1: ACGTCACTTCCCCAAAACGT
DNA 2: ACGTTTTGGGGAAGTGACGT
B8: PU.1 motif oligo 32 (dsDNA)
DNA 1: ACGTAACTTCCTCCTAACGT
DNA 2: ACGTTAGGAGGAAGTTACGT
B9: PU.1 motif oligo 26 (dsDNA)
DNA 1: ACGTAAGTTCCTCATTACGT
DNA 2: ACGTAATGAGGAACTTACGT
B10: PU.1 motif oligo 3 (dsDNA)
DNA 1: ACGTCACTTCCCCTTTACGT
DNA 2: ACGTAAAGGGGAAGTGACGT
B11: PU.1 motif oligo 34 (dsDNA)
DNA 1: ACGTCACTTCCTCCCCACGT
DNA 2: ACGTGGGGAGGAAGTGACGT
B12: PU.1 motif oligo 41 (dsDNA)
DNA 1: ACGTCACTTCCTAAATACGT
DNA 2: ACGTATTTAGGAAGTGACGT
B13: PU.1 motif oligo 2 (dsDNA)
DNA 1: ACGTCACTTCCTCATTACGT
DNA 2: ACGTAATGAGGAAGTGACGT
B14: PU.1 motif oligo 22 (dsDNA)
DNA 1: ACGTGACTTCCTCATCACGT
DNA 2: ACGTGATGAGGAAGTCACGT
B15: PU.1 motif oligo 20 (dsDNA)
DNA 1: ACGTAACTTCCCCATTACGT
DNA 2: ACGTAATGGGGAAGTTACGT
B16: PU.1 motif oligo 13 (dsDNA)
DNA 1: ACGTCACTTCCTCTACACGT
DNA 2: ACGTGTAGAGGAAGTGACGT
B17: PU.1 motif oligo 21 (dsDNA)
DNA 1: ACGTGAGTTCCTCTTTACGT
DNA 2: ACGTAAAGAGGAACTCACGT
B18: PU.1 motif oligo 29 (dsDNA)
DNA 1: ACGTGACTTCCTGTTTACGT
DNA 2: ACGTAAACAGGAAGTCACGT
B19: PU.1 motif oligo 5 (dsDNA)
DNA 1: ACGTCACTTCCTCTCTACGT
DNA 2: ACGTAGAGAGGAAGTGACGT
B20: PU.1 motif oligo 27 (dsDNA)
DNA 1: ACGTCTCTTCCTCTTTACGT
DNA 2: ACGTAAAGAGGAAGAGACGT
B21: PU.1 motif oligo 31 (dsDNA)
DNA 1: ACGTCAGTTCCTCAAAACGT
DNA 2: ACGTTTTGAGGAACTGACGT
B22: PU.1 motif oligo 43 (dsDNA)
DNA 1: ACGTCACTTCCTCTGGACGT
DNA 2: ACGTCCAGAGGAAGTGACGT
B23: PU.1 motif oligo 24 (dsDNA)
DNA 1: ACGTAACTTCCTCAATACGT
DNA 2: ACGTATTGAGGAAGTTACGT
B24: PU.1 motif oligo 11 (dsDNA)
DNA 1: ACGTCACTTCCTCAAAACGT
DNA 2: ACGTTTTGAGGAAGTGACGT
B25: PU.1 motif oligo 16 (dsDNA)
DNA 1: ACGTAACTTCCTCATAACGT
DNA 2: ACGTTATGAGGAAGTTACGT
B26: PU.1 motif oligo 36 (dsDNA)
DNA 1: ACGTCCCTTCCTCTTTACGT
DNA 2: ACGTAAAGAGGAAGGGACGT
B27: PU.1 motif oligo 38 (dsDNA)
DNA 1: ACGTCGCTTCCCCTTCACGT
DNA 2: ACGTGAAGGGGAAGCGACGT
B28: PU.1 motif oligo 17 (dsDNA)
DNA 1: ACGTCACTTCCTCCCTACGT
DNA 2: ACGTAGGGAGGAAGTGACGT
B29: PU.1 motif oligo 40 (dsDNA)
DNA 1: ACGTCAGTTCCTTAAAACGT
DNA 2: ACGTTTTAAGGAACTGACGT
B30: PU.1 motif oligo 15 (dsDNA)
DNA 1: ACGTGACTTCCTCTCTACGT
DNA 2: ACGTAGAGAGGAAGTCACGT
B31: PU.1 motif oligo 19 (dsDNA)
DNA 1: ACGTCAGTTCCTCTTCACGT
DNA 2: ACGTGAAGAGGAACTGACGT
B32: PU.1 motif oligo 30 (dsDNA)
DNA 1: ACGTCAGTTCCTGTTTACGT
DNA 2: ACGTAAACAGGAACTGACGT
B33: PU.1 motif oligo 35 (dsDNA)
DNA 1: ACGTTGCTTCCTCTTTACGT
DNA 2: ACGTAAAGAGGAAGCAACGT
B34: PU.1 motif oligo 25 (dsDNA)
DNA 1: ACGTCACTTCCGCTTCACGT
DNA 2: ACGTGAAGCGGAAGTGACGT
B35: PU.1 motif oligo 37 (dsDNA)
DNA 1: ACGTCACTTCCTGCTAACGT
DNA 2: ACGTTAGCAGGAAGTGACGT
B36: PU.1 motif oligo 39 (dsDNA)
DNA 1: ACGTCGCTTCCTCTCCACGT
DNA 2: ACGTGGAGAGGAAGCGACGT
B37: PU.1 motif oligo 44 (dsDNA)
DNA 1: ACGTCACTTCTCTTTTACGT
DNA 2: ACGTAAAAGAGAAGTGACGT
B38: PU.1 motif oligo 28 (dsDNA)
DNA 1: ACGTTACTTCCTTTTAACGT
DNA 2: ACGTTAAAAGGAAGTAACGT
B39: PU.1 motif oligo 33 (dsDNA)
DNA 1: ACGTAACTTCCCCAATACGT
DNA 2: ACGTATTGGGGAAGTTACGT

As usually defined, the Kd is the equilibrium constant for the complex coming apart.

In this data set the target is PU.1 (human, UniProt P17947 1-270). The data set can be described thus: MST; MST: 20 mM Tris-HCl pH 7.6, 1.5 mM MgCl2, 0.5 mM EGTA, 10% glycerol, 300 mM KCl, 10 mM DTT, 25 C; 50 nM Cy3-dsDNA, PU.1 1:1 dilutions from 23 uM. The note with it: protein: recombinant; tags: N-terminal His-tag; label: Cy3 on upper strand.
With B1, the Kd was determined as 452 ± 107 nM.

Turning to B2, the dissociation constant (Kd) is 588 ± 95 nM.

With B3, the Kd came out at 658 ± 267 nM.

B4: the Kd turned out to be 656 ± 191 nM.

In the case of B5, the Kd was 164 ± 17 nM.

Regarding B6, the Kd stood at 413 ± 84 nM.

Take B7: the Kd amounted to 362 ± 103 nM.

Regarding B8, the Kd stood at 464 ± 77 nM.

Take B9: the Kd is 490 ± 141 nM.

In the case of B10, the Kd was 454 ± 61 nM.

For B11, the dissociation constant (Kd) stood at 690 ± 134 nM.

As to B12, the Kd was 620 ± 147 nM.

For B13, the Kd is 272 ± 36 nM.

In the case of B14, the Kd was 532 ± 11 nM.

B15: the Kd worked out at 234 ± 21 nM.

In the case of B16, the Kd was 568 ± 283 nM.

Turning to B17, the Kd is 298 ± 15 nM.

Turning to B18, the Kd was 361 ± 54 nM.

Consider B19, for which the Kd was determined as 270 ± 23 nM.

Regarding B20, the Kd was 719 ± 116 nM.

Consider B21, for which the Kd was found to be 599 ± 142 nM.

Turning to B22, the Kd turned out to be 822 ± 289 nM.

In the case of B23, the Kd came out at 462 ± 77 nM.

In the case of B24, the Kd worked out at 242 ± 5 nM.

Consider B25, for which the Kd is 444 ± 55 nM.

In the case of B26, the Kd is 682 ± 71 nM.

On to B27, for which the equilibrium dissociation constant (Kd) is 893 ± 116 nM.

On to B28, for which the Kd worked out at 470 ± 26 nM.

With B29, the Kd came out at 808 ± 97 nM.

Turning to B30, the Kd came to 324 ± 45 nM.

As to B31, the Kd came out at 596 ± 7 nM.

With B32, the Kd was 558 ± 77 nM.

Take B33: the Kd was 414 ± 92 nM.

Regarding B34, the Kd stood at 613 ± 70 nM.

B35: the Kd came to 794 ± 112 nM.

On to B36, for which the Kd was 983 ± 94 nM.

In the case of B37, the Kd was 770 ± 174 nM.

As for B38, the Kd stood at 422 ± 29 nM.

With B39, the Kd is 611 ± 58 nM.
